Experiment [1] has as its target N-terminal Flag-tagged LRRC33 with its C-terminal transmembrane domain substituted with that of GARP (WT). Description: flow cytometry on cells. The note with it: for response: n = 3, mean ± s.d., read off a plot. (Flow cytometry measures light scatter and fluorescence of single cells or particles in a stream.)
For experiment [2] the target is unchanged. Nature of the experiment: flow cytometry on cells. The note with it: n = 3, mean ± s.d., read off a plot.
Experiment [3] concerns the target L-TGF-β1 WT with the furin cleavage site between LAP and the growth factor replaced with an HA tag (UniProt P01137). Description: flow cytometry on cells.
Experiment [4] concerns the target L-TGF-β1 C4S/R249A (the 'WT' of the SPR assay) (human). Nature of the experiment: SPR; Biacore T200, 25 °C; L-TGF-β1 (C4S/R249A, or + RGEGATG) immobilised on a CM5 chip by amine coupling; integrin headpieces injected at 20 μl/min in 20 mM HEPES pH 7.5, 150 mM NaCl, 1 mM MgCl2, 1 mM CaCl2; 1:1 Langmuir model. Background: Surface plasmon resonance follows binding to a sensor surface in real time, without labels.

[5] abbreviates: Expi293F cells co-transfected with L-TGF-β1 and LRRC33, anti-HA staining.

Data on 20 substances can be found in article PMC9411592.

Like-named read-outs stand apart in the source and are kept apart here.

“L-TGF-β1 WT with the furin cleavage site between LAP and the growth factor replaced with an HA tag (from UniProt P01137) H317I” displayed an other: percentage of L-TGF-β+ (anti-HA+) subset in experiment [1] of 9.58%. In addition, the response in experiment [1] (parent: est. 21000) is 2800 MFI; in experiment [2] (parent: est. 21000), 3600 MFI.
Consider “L-TGF-β1 WT with the furin cleavage site between LAP and the growth factor replaced with an HA tag (from UniProt P01137) H317L”, for which, in experiment [1] (parent: est. 21000), the response amounted to 6000 MFI.
With “L-TGF-β1 WT with the furin cleavage site between LAP and the growth factor replaced with an HA tag (from UniProt P01137) I300L”, in experiment [1] (parent: est. 21000), the response was 16000 MFI.
On the same count and under the same terms, to “L-TGF-β1 WT with the furin cleavage site between LAP and the growth factor replaced with an HA tag (from UniProt P01137) K309R” belongs 15000 MFI.
As for “L-TGF-β1 WT with the furin cleavage site between LAP and the growth factor replaced with an HA tag (from UniProt P01137) K309T”, in experiment [1] (parent: est. 21000), the response was determined as 5500 MFI.
The substance “L-TGF-β1 WT with the furin cleavage site between LAP and the growth factor replaced with an HA tag (from UniProt P01137) K309T; H317L” returned an other: percentage of L-TGF-β+ (anti-HA+) subset in experiment [1] of 15.2%. For the same substance, in experiment [2] (parent: est. 21000), the response stood at 3400 MFI.
Consider “L-TGF-β1 WT with the furin cleavage site between LAP and the growth factor replaced with an HA tag (from UniProt P01137) L303A”, for which, in experiment [1] (parent: est. 21000), the response was found to be 26000 MFI.
Turning to “L-TGF-β1 WT with the furin cleavage site between LAP and the growth factor replaced with an HA tag (from UniProt P01137) L303S”, the response in experiment [1] (parent: est. 21000) amounted to 25000 MFI.
As for “L-TGF-β1 WT with the furin cleavage site between LAP and the growth factor replaced with an HA tag (from UniProt P01137) P296A”, the response in experiment [1] (parent: est. 21000) came to 16000 MFI.
Consider “L-TGF-β1 WT with the furin cleavage site between LAP and the growth factor replaced with an HA tag (from UniProt P01137) Q306T”, for which the response in experiment [1] (parent: est. 21000) turned out to be 13000 MFI.
For the substance “L-TGF-β1 WT with the furin cleavage site between LAP and the growth factor replaced with an HA tag (from UniProt P01137) W301A”, in experiment [1] (setting [5]), the other: percentage of L-TGF-β+ (anti-HA+) subset was found to be 28.7%. Moreover, in experiment [1] (Expi293F cells, parent: est. 22000), the response was found to be 5300 MFI.
In the case of “L-TGF-β1 WT with the furin cleavage site between LAP and the growth factor replaced with an HA tag (from UniProt P01137) W301R”, the response in experiment [1] (parent: est. 21000) came to 14000 MFI.
As to “L-TGF-β1 WT with the furin cleavage site between LAP and the growth factor replaced with an HA tag (from UniProt P01137) W301R; K309T; H317L”, the other: percentage of L-TGF-β+ (anti-HA+) subset in experiment [1] was 12.3%. Moreover, the response in experiment [2] (parent: est. 21000) came out at 3500 MFI.
With “L-TGF-β1 WT with the furin cleavage site between LAP and the growth factor replaced with an HA tag (from UniProt P01137) Y307H”, in experiment [1] (parent: est. 21000), the response is 28000 MFI.
Substance “L-TGF-β2 WT with HA tag in place of the furin cleavage site (from UniProt P61812) I350H” returned an other: percentage of L-TGF-β+ (anti-HA+) subset in experiment [1] of 44.6%. Moreover, the response in experiment [2] (parent: est. 2800) was determined as 11000 MFI.
“L-TGF-β3 WT with HA tag in place of the furin cleavage site (from UniProt P10600) R328W; T336K; L344H” showed an other: percentage of L-TGF-β+ (anti-HA+) subset in experiment [1] of 21.5%. Moreover, in experiment [2] (parent: est. 2700), the response is 5500 MFI.
On the same counts, the results for “L-TGF-β3 WT with HA tag in place of the furin cleavage site (from UniProt P10600) T336K; L344H” are 14.4% and 4000 MFI.
Take “N-terminal Flag-tagged LRRC33 with its C-terminal transmembrane domain substituted with that of GARP (WT) Y174R”: in experiment [3] (setting [5]), the other: percentage of L-TGF-β+ (anti-HA+) subset came to 23.1%. The response in experiment [3] (Expi293F cells, n = 3, mean ± s.d., parent: est. 22000, read off a plot) was found to be 4000 MFI.
A word on the Kd: it is a measure of binding affinity in units of concentration. As for “integrin αVβ8-6DLL headpiece (the disulfide-linked loop of β8 substituted by that of β6) (complex)”, in experiment [4], the Kd was determined as 19.8 nM.
On the same count and under the same terms, the figure for “αVβ8-IgG1 Fc (heterotetramer of αVβ8 linked by the IgG1 Fc fragment on the C-terminus of β8) (Fc fusion)” is 5.75 nM.
